# Experimental data published in paper PMC10943538 (Plant Communications, 2023).
# T1: EGL3-MBP (Arabidopsis thaliana, UniProt Q9CAD0 1-596)
# T1 sequence (looked up): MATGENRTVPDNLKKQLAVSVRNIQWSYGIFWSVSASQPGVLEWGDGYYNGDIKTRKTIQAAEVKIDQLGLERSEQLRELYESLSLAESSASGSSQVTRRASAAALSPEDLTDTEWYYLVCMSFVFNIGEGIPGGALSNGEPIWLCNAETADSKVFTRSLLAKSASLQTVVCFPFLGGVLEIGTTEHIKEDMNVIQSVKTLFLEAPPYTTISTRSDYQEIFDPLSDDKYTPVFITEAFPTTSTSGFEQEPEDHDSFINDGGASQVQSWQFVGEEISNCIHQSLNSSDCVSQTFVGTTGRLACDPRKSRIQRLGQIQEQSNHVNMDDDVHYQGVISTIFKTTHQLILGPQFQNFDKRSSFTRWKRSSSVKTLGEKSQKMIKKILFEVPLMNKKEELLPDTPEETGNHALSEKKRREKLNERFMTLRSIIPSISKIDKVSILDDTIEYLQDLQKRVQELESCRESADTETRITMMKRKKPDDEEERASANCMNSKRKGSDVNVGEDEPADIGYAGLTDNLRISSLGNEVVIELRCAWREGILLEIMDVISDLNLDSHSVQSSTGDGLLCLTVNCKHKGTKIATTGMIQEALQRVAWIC
# T2: TT8-MBP (Arabidopsis thaliana, UniProt Q9FT81 1-518)
# T2 sequence (looked up): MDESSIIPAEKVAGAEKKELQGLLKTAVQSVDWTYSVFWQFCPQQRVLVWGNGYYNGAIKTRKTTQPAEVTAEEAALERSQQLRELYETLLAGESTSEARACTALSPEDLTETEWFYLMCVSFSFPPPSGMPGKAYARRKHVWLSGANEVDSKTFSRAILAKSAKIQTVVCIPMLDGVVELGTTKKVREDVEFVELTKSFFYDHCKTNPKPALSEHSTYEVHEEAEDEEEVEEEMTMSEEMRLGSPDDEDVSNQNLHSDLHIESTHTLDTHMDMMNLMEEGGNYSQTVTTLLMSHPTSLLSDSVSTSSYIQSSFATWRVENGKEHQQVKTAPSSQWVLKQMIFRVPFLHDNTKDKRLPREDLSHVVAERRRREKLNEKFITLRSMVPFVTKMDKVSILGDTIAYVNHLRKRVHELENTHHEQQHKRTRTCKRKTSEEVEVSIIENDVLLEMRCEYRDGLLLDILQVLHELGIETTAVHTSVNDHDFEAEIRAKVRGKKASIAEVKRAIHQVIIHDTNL
# T3: MBP-MYB75 (Arabidopsis thaliana, UniProt Q9FE25 1-248)
# T3 sequence (looked up): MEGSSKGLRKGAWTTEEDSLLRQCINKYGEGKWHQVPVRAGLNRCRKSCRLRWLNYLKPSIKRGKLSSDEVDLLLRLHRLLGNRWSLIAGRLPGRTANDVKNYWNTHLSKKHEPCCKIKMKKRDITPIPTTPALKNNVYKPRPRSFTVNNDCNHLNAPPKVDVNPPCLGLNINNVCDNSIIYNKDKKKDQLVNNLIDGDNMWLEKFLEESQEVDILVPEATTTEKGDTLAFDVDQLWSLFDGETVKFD
# B1: His-MYB75 (natural protein, Arabidopsis thaliana, UniProt Q9FE25 1-248, looked up)
# chain: T3 sequence (looked up)
# B2: GST-MYB30^N (domain or fragment)
# chain: not shown
# How the values were obtained:
# Experiment in all cases: pull-down
# [1] = target: T1, EGL3-MBP
# [2] = target: T2, TT8-MBP
# [3] = target: B1
# [4] = target: T3, MBP-MYB75
binding result [1],binding result [2],binding result [3],binding result [4],Binder
binds,binds,,,B1
,,binds,binds,B2
